Data taken from patent publication US20260167699A1 (Chugai, published 2026).

T1: FcγRIIa(R) extracellular domain with C-terminal His tag (human, UniProt P12318 34-217)
T1 construct: extracellular domain; R131 allotype; also called 2aR; CD32
T1 sequence: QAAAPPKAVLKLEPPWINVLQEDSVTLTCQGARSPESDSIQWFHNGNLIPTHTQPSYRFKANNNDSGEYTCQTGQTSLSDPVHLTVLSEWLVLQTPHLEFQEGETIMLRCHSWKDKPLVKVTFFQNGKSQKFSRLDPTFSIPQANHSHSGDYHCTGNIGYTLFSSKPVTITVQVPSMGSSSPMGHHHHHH

T2: FcγRIIb extracellular domain with C-terminal His tag (human, UniProt P31994 43-217)
T2 construct: extracellular domain; also called 2b; CD32
T2 sequence: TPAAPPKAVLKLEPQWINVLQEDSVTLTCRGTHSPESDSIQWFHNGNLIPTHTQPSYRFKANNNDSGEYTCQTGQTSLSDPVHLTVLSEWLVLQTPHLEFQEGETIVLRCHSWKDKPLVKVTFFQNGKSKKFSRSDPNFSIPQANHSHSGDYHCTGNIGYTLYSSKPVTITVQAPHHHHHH

T3: FcγRIIa(H) extracellular domain with C-terminal His tag (human, UniProt P12318 34-217)
T3 construct: extracellular domain; H131 allotype; also called 2aH; CD32
T3 sequence: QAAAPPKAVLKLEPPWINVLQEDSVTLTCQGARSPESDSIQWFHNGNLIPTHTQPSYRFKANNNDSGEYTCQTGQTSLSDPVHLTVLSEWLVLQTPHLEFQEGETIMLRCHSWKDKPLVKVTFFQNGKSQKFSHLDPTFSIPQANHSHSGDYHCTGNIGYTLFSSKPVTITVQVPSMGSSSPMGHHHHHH

B1: GpH7-A5/GpH7-B3 variant T335_14T/GpL16-k0 (antibody, human IgG1, kappa)
heavy 1: not shown
heavy 2: not shown
light: DIVMTQSPLSLPVTPGEPASISCQASESLVHSNRNTYLHWYLQKPGQSPQLLIYKVSNRFSGVPDRFSGSGSGTDFTLKISRVEAEDVGVYYCSQNTHVPPTFGQGTKVEIERTVAAPSVFIFPPSDEQLKSGTASVVCLLNNFYPREAKVQWKVDNALQSGNSQESVTEQDSKDSTYSLSSTLTLSKADYEKHKVYACEVTHQGLSSPVTKSFNRGEC
notes: also called He Ab
B2: GpH7-A5/GpH7-B3 variant A330_05P/GpL16-k0 (antibody, human IgG1, kappa)
heavy 1: not shown
heavy 2: not shown
light: DIVMTQSPLSLPVTPGEPASISCQASESLVHSNRNTYLHWYLQKPGQSPQLLIYKVSNRFSGVPDRFSGSGSGTDFTLKISRVEAEDVGVYYCSQNTHVPPTFGQGTKVEIERTVAAPSVFIFPPSDEQLKSGTASVVCLLNNFYPREAKVQWKVDNALQSGNSQESVTEQDSKDSTYSLSSTLTLSKADYEKHKVYACEVTHQGLSSPVTKSFNRGEC
notes: heterodimerized IgG1 (He Ab), mutation in one H chain only; also called He Ab
B3: GpH7-A5/GpH7-B3 variant A330_06M/GpL16-k0 (antibody, human IgG1, kappa)
heavy 1: not shown
heavy 2: not shown
light: DIVMTQSPLSLPVTPGEPASISCQASESLVHSNRNTYLHWYLQKPGQSPQLLIYKVSNRFSGVPDRFSGSGSGTDFTLKISRVEAEDVGVYYCSQNTHVPPTFGQGTKVEIERTVAAPSVFIFPPSDEQLKSGTASVVCLLNNFYPREAKVQWKVDNALQSGNSQESVTEQDSKDSTYSLSSTLTLSKADYEKHKVYACEVTHQGLSSPVTKSFNRGEC
notes: as for B2
B4: GpH7-A5/GpH7-B3 variant A330_11K/GpL16-k0 (antibody, human IgG1, kappa)
heavy 1: not shown
heavy 2: not shown
light: DIVMTQSPLSLPVTPGEPASISCQASESLVHSNRNTYLHWYLQKPGQSPQLLIYKVSNRFSGVPDRFSGSGSGTDFTLKISRVEAEDVGVYYCSQNTHVPPTFGQGTKVEIERTVAAPSVFIFPPSDEQLKSGTASVVCLLNNFYPREAKVQWKVDNALQSGNSQESVTEQDSKDSTYSLSSTLTLSKADYEKHKVYACEVTHQGLSSPVTKSFNRGEC
notes: as for B2
B5: GpH7-A5/GpH7-B3 variant A330_12R/GpL16-k0 (antibody, human IgG1, kappa)
heavy 1: not shown
heavy 2: not shown
light: DIVMTQSPLSLPVTPGEPASISCQASESLVHSNRNTYLHWYLQKPGQSPQLLIYKVSNRFSGVPDRFSGSGSGTDFTLKISRVEAEDVGVYYCSQNTHVPPTFGQGTKVEIERTVAAPSVFIFPPSDEQLKSGTASVVCLLNNFYPREAKVQWKVDNALQSGNSQESVTEQDSKDSTYSLSSTLTLSKADYEKHKVYACEVTHQGLSSPVTKSFNRGEC
notes: as for B2
B6: GpH7-A5/GpH7-B3 variant A330_15Y/GpL16-k0 (antibody, human IgG1, kappa)
heavy 1: not shown
heavy 2: not shown
light: DIVMTQSPLSLPVTPGEPASISCQASESLVHSNRNTYLHWYLQKPGQSPQLLIYKVSNRFSGVPDRFSGSGSGTDFTLKISRVEAEDVGVYYCSQNTHVPPTFGQGTKVEIERTVAAPSVFIFPPSDEQLKSGTASVVCLLNNFYPREAKVQWKVDNALQSGNSQESVTEQDSKDSTYSLSSTLTLSKADYEKHKVYACEVTHQGLSSPVTKSFNRGEC
notes: as for B2
B7: GpH7-A5/GpH7-B3 variant E333_01G/GpL16-k0 (antibody, human IgG1, kappa)
heavy 1: not shown
heavy 2: not shown
light: DIVMTQSPLSLPVTPGEPASISCQASESLVHSNRNTYLHWYLQKPGQSPQLLIYKVSNRFSGVPDRFSGSGSGTDFTLKISRVEAEDVGVYYCSQNTHVPPTFGQGTKVEIERTVAAPSVFIFPPSDEQLKSGTASVVCLLNNFYPREAKVQWKVDNALQSGNSQESVTEQDSKDSTYSLSSTLTLSKADYEKHKVYACEVTHQGLSSPVTKSFNRGEC
notes: as for B2

How the values were obtained:
Test in all cases: SPR; % of GpH7-A5/GpH7-B3/GpL16-k0
[1] = target: T4, FcγRIIIa extracellular domain with C-terminal His tag (human, UniProt P08637 17-208)
T4 construct: extracellular domain; also called 3a; CD16

[2] = target: T1, FcγRIIa(R) extracellular domain with …
[3] = target: T2, FcγRIIb extracellular domain with …
[4] = target: T5, FcγRIa extracellular domain with C-terminal His tag (human, UniProt P12314 16-292)
T5 construct: extracellular domain; also called 1a; CD64

[5] = target: T3, FcγRIIa(H) extracellular domain with …

T5 sequence (P12314 other isoform, or with tags, fused parts or gaps): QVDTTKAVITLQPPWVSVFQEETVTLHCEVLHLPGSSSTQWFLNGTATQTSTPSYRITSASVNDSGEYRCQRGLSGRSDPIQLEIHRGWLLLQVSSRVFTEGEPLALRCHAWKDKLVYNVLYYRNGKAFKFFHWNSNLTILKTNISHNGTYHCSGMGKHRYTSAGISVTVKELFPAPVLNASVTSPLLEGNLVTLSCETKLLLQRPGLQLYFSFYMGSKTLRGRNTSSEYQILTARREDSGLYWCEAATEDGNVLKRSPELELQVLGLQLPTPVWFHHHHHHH
T4 sequence (P08637 other isoform, or with tags, fused parts or gaps): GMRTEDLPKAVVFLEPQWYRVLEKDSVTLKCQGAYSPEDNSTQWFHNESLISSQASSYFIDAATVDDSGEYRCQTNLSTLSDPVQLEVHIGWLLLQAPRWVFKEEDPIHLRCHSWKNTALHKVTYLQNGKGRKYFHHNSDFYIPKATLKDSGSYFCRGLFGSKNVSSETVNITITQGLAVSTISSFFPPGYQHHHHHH

| Binder | He/Con 3a [1] [%] | He/Con 2aR [2] [%] | He/Con 2b [3] [%] | He/Con 1a [4] [%] | He/Con 2aH [5] [%] |
| --- | --- | --- | --- | --- | --- |
| B1 | 104 | 116 | 116 | 110 | 112 |
| B2 | 152 | 129 | 154 | 105 | 92.6 |
| B3 | 139 | 107 | 90.9 | 108 | 101 |
| B4 | 91.8 | 124 | 107 | 107 | 118 |
| B5 | 77.3 | 116 | 95.8 | 103 | 116 |
| B6 | 122 | 114 | 107 | 108 | 106 |
| B7 | 101 | 127 | 105 | 97.2 | 112 |
